Assay [1] concerns the target T1, human VEGF165 (human, UniProt P15692-4 27-191). Description: solution binding: human VEGF incubated 1 h at 37 C with dilutions of binder, free VEGF measured by ELISA kit. (In general: In an ELISA, binding on a coated surface is turned into a signal by an enzyme label.)
Assay [2] concerns the target T1, human VEGF165. The experiment in a line: binding assay on purified fusion protein (quality testing).
Assay [3] has as its target T1, human VEGF165. The experiment in a line: comparison of affinity for VEGF, reference Avastin.

T1 sequence (P15692 other isoform, or with tags, fused parts or gaps limits assumed): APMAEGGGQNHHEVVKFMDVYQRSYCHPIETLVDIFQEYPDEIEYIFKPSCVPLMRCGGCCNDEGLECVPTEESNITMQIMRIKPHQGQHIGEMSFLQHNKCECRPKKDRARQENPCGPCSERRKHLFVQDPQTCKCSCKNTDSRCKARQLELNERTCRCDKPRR

B1: VEGF-TRAP (FP1′, FLTd2KDRd3-Fc) (Fc fusion, UniProt P17948 129-230, looked up)
chain: SDTGRPFVEMYSEIPEIIHMTEGRELVIPCRVTSPNITVTLKKFPLDTLIPDGKRIIWDSRKGFIISNATYKEIGLLTCEATVNGHLYKTNYLTHRQTNTIIDVVLSPSHGIELSVGEKLVLNCTARTELNVGIDFNWEYPSSKHQHKKLVNRDLKTQSGSEMKKFLSTLTIDGVTRSDQGLYTCAASSGLMTKKNSTFVRVHEK
notes: domain: 2nd Ig-like domain of FLT-1;domain: 3rd Ig-like domain of KDR; also called VEGF Trap (R1R2); not shown: human immunoglobulin Fc (IgFc)
Usually IC50 stands for the point on the concentration scale where inhibition reaches its midpoint. A low value points to inhibition by little substance. In the assay with human VEGF165 [1], B1 registered an IC50 of 0.03 nM.

B2: FP3′ (FLTd2-KDRd3-KDRd4-Fc chimeric fusion protein) (Fc fusion)
chain: GRPFVEMYSEIPEIIHMTEGRELVIPCRVTSPNITVTLKKFPLDTLIPDGKRIIWDSRKGFIISNATYKEIGLLTCEATVNGHLYKTNYLTHRQTNTIIDVVLSPSHGIELSVGEKLVLNCTARTELNVGIDFNWEYPSSKHQHKKLVNRDLKTQSGSEMKKFLSTLTIDGVTRSDQGLYTCAASSGLMTKKNSTFVRVHEKPFVAFGSGMESLVEATVGERVRIPAKYLGYPPPEIKWYKNGIPLESNHTIKAGHVLTIMEVSERDTGNYTVILTNPISKEKQSHVVSLVVYVPP
On to B2, for which the IC50 in the assay with human VEGF165 [1] was 0.01 nM; in the assay with human VEGF165 [2], at most 0.05 nM. Also, the “fold affinity against Avastin” value in the assay with human VEGF165 [3] came out at 50 fold.
